From patent publication US20120122765A1, “COMPOUNDS AND RELATED METHODS FOR MANIPULATING PARP-1-DEPENDENT CELL DEATH” (priority 2010, published 2012)
“Also recorded” adds a separate entry of the source.

Legend:
[1] = FAD binding by spectrophotometric wave length scanning; conditions: His-Pbm-AIF versus His-WT-AIF
Method: Unless otherwise set forth herein, the determination of NADH Oxidase Activity and FAD binding of AIF in the various examples below was performed using the following materials and procedures. AIF's NADH oxidase activity was determined as previously described by M. Miramar et al. (J Biol Chem, 2001). In brief, the NADH oxidase activity was measured at room temperature in substrate solution containing 250 μM NADH in air-saturated 50 mM Tris-HCl, pH 8.0. The decrease in absorbance at OD340 nm was monitored right after the addition of recombinant His-tagged AIF into the substrate solution. In situ redox activity of recombinant His-tagged AIF was performed as previously described by J. Gagne et al. (Nucleic Acids Res, 2008). The AIF protein was separated on a 10% native gel and then the gel was briefly washed in distilled water. The gel was equilibrated in 2,2′-Di-p-nitrophenyl-5-5′-diphenyl-3,3′ (3-3′-dimethoxy-4-4′difenilen)tetrazolium chloride (“NBT”) solution for 20 minutes in the dark followed by the addition of 1 mM NADH to NBT solution to reduce NBT. FAD binding to AIF was monitored at 13 μM concentration of His-tagged AIF by wave length scanning ranging from 250-800 nm using Beckman Coulter DU800 UV/Vis spectrophotometer.
FAD binding of His-WT-AIF and His-Pbm-AIF was determined by spectrophotometric wave length scanning of purified proteins. […]

DNA = DNA retardation assay; type: binding; conditions: DNA (200 ng), 30 minutes
Method: AIF binding-mediated DNA mobility retardation was performed as described by H. Cande et al. (Nat Struct Biol, 2002). Recombinant His-tagged AIF (10 μg or 25 μg) was incubated with 1 kb DNA molecular weight marker (obtained from Fermentas) for 30 minutes at room temperature and loaded on 2.5% agarose gel prestained with ethidium bromide (1 μg/ml). Mobility shift was visualized under the Alpha Innotech UV illuminator.
Further, a DNA retardation assay of His-WT-AIF and His-Pbm-AIF was conducted by incubating both with DNA (200 ng) for 30 minutes, using BSA as a negative control.

PAR [2] = experiment: nitrocellulose saturation binding experiments; conditions: result in words
Source text: Applicants thereafter repeated the experiments using both wild type and mutant AIFm peptides spanning only amino acids 567-592 instead of full length AIFm and obtained results consistent with those using full-length AIF. […] The double amino acid mutant Dm (corresponding to only amino acids 567-592 of AIF-Dm so as to consist of SEQ. ID NO. 16) bound PAR. […] Thus, it is preferred in embodiments of the invention when conducting genetic manipulations to convert at least three target basic amino acids in the PBM to hydrophobic amino acids.
The PAR polymer binding properties of the mutant Pbm-AIF was then measured using full-length recombinant His-WT-AIF and His tagged Pbm-AIF (“His-Pbm-AIF”) via a series of nitrocellulose saturation binding experiments. Similar experiments were also conducted for the shorter peptides Dm and Tm in comparison to WT. FIG. 10B through FIG. 10D comprise charts reporting data from these various experiments. With regard to the shorter peptides, Applicants determined that the binding affinity constant (“Kd”) and maximum binding capacity (“Bmax”) of these AIF mimetic peptides and the results are reported in the chart of FIG. 10B. […] FIG. 10D comprises a Scatchard plot (95% confidence interval) of the results.

[3] = NADH oxidase activity of AIF; type: biochemical; conditions: compared to His-WT-AIF
Method: Unless otherwise set forth herein, the determination of NADH Oxidase Activity and FAD binding of AIF in the various examples below was performed using the following materials and procedures. AIF's NADH oxidase activity was determined as previously described by M. Miramar et al. (J Biol Chem, 2001). In brief, the NADH oxidase activity was measured at room temperature in substrate solution containing 250 μM NADH in air-saturated 50 mM Tris-HCl, pH 8.0. The decrease in absorbance at OD340 nm was monitored right after the addition of recombinant His-tagged AIF into the substrate solution. In situ redox activity of recombinant His-tagged AIF was performed as previously described by J. Gagne et al. (Nucleic Acids Res, 2008). […] FAD binding to AIF was monitored at 13 μM concentration of His-tagged AIF by wave length scanning ranging from 250-800 nm using Beckman Coulter DU800 UV/Vis spectrophotometer.
Independent of its role in parthanatos, AIF has NADH (the reduced form of nicotinamide adenine dinucleotide) oxidase activity, binds to FAD (flavin adenine dinucleotide) and DNA, and causes nuclear condensation. To determine whether the triple amino acid mutation found in Pbm-AIF interferes with these properties, Applicants assessed the NADH oxidase activity, FAD-binding capacity, and DNA-binding capacity of full-length His-WT-AIF and His-Pbm-AIF. […]

[4] = test system: Hq mouse cortical neuronal cultures; experiment: AIF translocation to the nucleus in Hq cortical neurons; type: cell-based
Method: Unless otherwise set forth herein, immunocytochemistry, immunohistochemistry and confocal microscopy as referenced in the examples entailed the following materials and procedures. […] AIF was visualized by 2 μg/ml mouse anti-Flag/Cyt AffiniPure Donkey Anti-Mouse IgG or rabbit anti-AIF/Cy3 AffiniPure Donkey Anti-Rabbit IgG. Immunohistochemistry was performed using the antibody against Flag. Immunofluorescence analysis thereafter was carried out by using a LSM510 confocal laser scanning microscope (obtained from Carl Zeiss Microlmaging) as described by H. Wang et al. (J. Neurosci, 2004).
Again, AIF translocation to the nucleus was monitored two hours after NMDA (500 μM, 5 minutes) treatment sufficient to initiate parthanatos in wild-type cells.

PAR [5] = experiment: co-immunoprecipitation with PAR in HeLa cells; type: cell-based
Method: The following experiment was performed to confirm whether AIF in fact binds to PAR in intact cells. Applicants exposed HeLa cells stably transduced with lentivirus C-terminal Flag-tagged mouse wild type AIF (WT-AIF-Flag) to MNNG, a DNA alkylating agent that activates PARP-1 and kills cells primarily through parthanatos. […] FIG. 2A comprises two side by side black and white photos of representative gels obtained by Applicants, showing the impact of MNNG upon these HeLa cells (left photo being HeLa cells without MNNG, and right photo being HeLa cells 2 hours after MNNG treatment at 50 μM for 15 min). […] FIG. 2B is a chart reporting the data regarding the relative intensity of the interaction pre and post MNNG for these experiments (*** indicates p<0.001).

HeLa cells = experiment: AIF nuclear translocation in HeLa cells after MNNG; type: cell-based; conditions: MNNG 50 μM for 15 minutes, confocal image analysis
Method: Unless otherwise set forth herein, immunocytochemistry, immunohistochemistry and confocal microscopy as referenced in the examples entailed the following materials and procedures. For immunocytochemistry, cells were fixed 2 hours after treatment with 4% paraformaldehyde, permeabilized with 0.05% Triton X-100, and blocked with 3% bovine serum albumin in PBS. AIF was visualized by 2 μg/ml mouse anti-Flag/Cyt AffiniPure Donkey Anti-Mouse IgG or rabbit anti-AIF/Cy3 AffiniPure Donkey Anti-Rabbit IgG. Immunohistochemistry was performed using the antibody against Flag. Immunofluorescence analysis thereafter was carried out by using a LSM510 confocal laser scanning microscope (obtained from Carl Zeiss Microlmaging) as described by H. Wang et al. (J. Neurosci, 2004).

[6] = test system: mitochondria of HeLa cells; experiment: in vitro AIF release from mitochondria of HeLa cells; conditions: purified PAR, transiently transfected HeLa cells
Method: (§1) Unless otherwise set forth herein, mitochondria isolation and in vitro AIF release assays as referenced in the examples below were performed using the following materials and procedures. Mitochondria were prepared from HeLa cells and cortical neurons as follows by harvesting cells, re-suspending them in 2 ml MIB buffer (10 mM HEPES, pH 7.4, 300 mM sucrose, 1 mM EGTA), and homogenizing by 60 strokes with B type Dounce homogenizer. Nuclei were pelleted at 750×g for 5 minutes and mitochondria were spun down at 3,000×g for 10 minutes. Isolated mitochondria were dissolved in a minimum volume of sucrose buffer (10 mM HEPES, pH 7.4, 300 mM sucrose) and protein concentration was adjusted to 2 mg/ml. […] In vitro AIF release was carried out at room temperature for 30 minutes in assay buffer (20 mM HEPES, pH 7.4, 125 mM KCl, 2 mM K2HPO4, 4 mM MgCl2, 5 mM succinate, 2 mM rotenone, 3 μM ATP and 1 μM ADP) in the presence of 100 nM PAR and 1 mg/ml isolated mitochondria. […]
(§2) Next, Applicants used Hq cortical neurons transduced with WT-AIF-Flag or Pbm-AIF-Flag lentiviruses to determine whether PAR plays a direct role in mitochondrial AIF release. […] Three days after lentivirus infection, mitochondria were isolated and exposed to purified PAR to elicit in vitro AIF release by incubation with PAR for 30 minutes, and the levels of AIF were determined in the mitochondria and in the supernatant.

[7] = test system: mitochondria isolated from cortical neurons; experiment: in vitro AIF release from mitochondria of Hq cortical neurons; conditions: incubation with purified PAR for 30 minutes
Method: as §1, §2

Hq MEFs = experiment: MNNG cytotoxicity in Hq MEFs; type: cell-based, mouse; conditions: Hq MEFs, 24 hours after MNNG 500 μM for 15 min
Method: Further, the effect WT-AIF-Flag or Pbm-AIF-Flag on Hq MEF cell viability was determined 24 hours after MNNG (500 μM for 15 min) cytotoxicity with and without zVAD (100 μM), and the results of three trials is reported in FIG. 17B.

Hq mice [8] = experiment: NMDA excitotoxicity in striatum of Hq mice
Method: 1 μl Lentivirus (5×1010 T.U./ml) carrying WT-AIF-Flag, Pbm-AIF-Flag, or GFP was injected into striatum on both sides of the brain (rostral, 0.4 mm; lateral+/−1.7 mm; ventral 3.5 mm from bregma), and 1 μl AAV2 (1×1013 T.U./ml) carrying WT-AIF-Flag, Pbm-AIF-Flag or GFP was injected into CA1 in hippocampi on both sides of the brain (posterior, 2.0 mm; lateral+/−1.5 mm; ventral 1.5 mm from bregma) using a stereotactic frame (Kopf) (0.02 ml/min). The needle was left in place for an additional 8 minutes after injection. One week after the first injection, 20 nmol NMDA or normal saline in 0.8 μl was injected into the right and left striatum (0.02 μl/min), respectively. The needle was left in place for an additional 8 minutes after injection. Lesion volumes were assessed at 48 hours, 60 hours, or 168 hours after NMDA administration. At the indicated time point after the second injection, the mice were deeply anesthetized, and then perfused with saline and 4% paraformaldehyde. After postfixation and freezing in 20% glycerol-PBS, brain sections (30 μm) were obtained for Nissl staining and immunohistochemistry analysis.
Applicants next assessed whether replacement of WT-AIF-Flag or Pbm-AIF-Flag through lentiviral transduction would restore the sensitivity of Hq mice to NMDA excitotoxicity. […]

Hq mice [9] = experiment: NMDA excitotoxicity in hippocampal CA1 region of Hq mice; type: in vivo, mouse; conditions: AAV2 in CA1, 60 hours after NMDA
Method: Seven days following virus injection, Applicants injected NMDA into the right CA1 region and saline into the left CA1 region, and then assessed CA1 lesion volume 60 hours later. […] FIG. 20B is an array of six representative Nissl staining photos taken 60 hours post NMDA injection, while FIG. 20C is a graph of the experimental data obtained for lesion volume percentages.

PAR [10] = experiment: co-immunoprecipitation with PAR in Hq cortical neurons
Method: For co-immunoprecipitation, the post-nuclear cell extracts, which is the fraction prepared from whole cell lysates after removing nuclear proteins, were isolated in hypotonic buffer as previously described by S. Andrabi et al., and then incubated overnight with an antibody against PAR in the presence of protein A/G Sepharose (obtained from Santa Cruz Biotechnology, of Santa Cruz, Calif.), followed by immunoblot analysis with mouse anti-Flag antibody (obtained from Sigma). The proteins were separated on denaturing polyacrylamide gel electrophoresis (SDS-PAGE) and transferred to nitrocellulose membrane. […] After washing, the immune complexes were detected by the SuperSignal West Pico Chemiluminescent Substrate. The integrity of the nuclear and postnuclear subcellular fractions was determined by monitoring histone and MnSOD immunoreactivity, respectively.
To determine whether Pbm-AIF fails to bind to PAR in cultured cortical neurons, neuronal cultures were transduced by lentivirus with WT-AIF-Flag or Flag-tagged Pbm-AIF (“Pbm-AIF-Flag”). […] AIF was translocation to the nucleus for each neuron culture was monitored 2 hours after administration of NMDA (500 μM NMDA for 5 minutes). […]

Hq cortical neurons = experiment: NMDA excitotoxicity in Hq cortical neurons; type: cell-based, mouse; conditions: lentivirus-transduced Hq cortical neurons, NMDA 500 μM for 5 min, 24, 36, 48 hours
Method: HQ cortical neuron cells were transduced with lentivirus carrying WT-AIF-Flag or Pbm-AIF-Flag. Non-transduced neurons and GFP-lentivirus infected cells were used as negative controls. […] In those photos, blue indicates Hoechst 33342 staining and red indicates propidium iodide staining. […] The cytotoxicity in these Hq cortical neurons was measured at 24 hours, 36 hours, and 48 hours after NMDA (500 μM for 5 min) treatment, and the data for this is reported in the graph of FIG. 18B.

Row | Molecule | FAD binding properties [1] | DNA-binding properties (DNA) | PAR binding in saturation binding experiments (PAR [2]) | NADH oxidase activity [3] | translocation to the nucleus after staurosporine ([4]; 100 nM staurosporine, 24 hours) | translocation to the nucleus after NMDA ([4]; two hours after NMDA (500 μM, 5 minutes), immunoblot of fractions or confocal image analysis) | change of interaction with PAR following MNNG treatment (PAR [5]; 2 hours after MNNG 50 μM for 15 min) | co-immunoprecipitation with PAR (PAR [5]; postnuclear fractions, non-MNNG- and MNNG-treated HeLa cells) | nuclear translocation after MNNG (HeLa cells) | PAR-induced release from mitochondria [6] | PAR-induced release from mitochondria [7] | effect on MNNG-induced cell death (Hq MEFs) | sensitivity to NMDA excitotoxicity (lesion volume) (Hq mice [8]; lentivirus in striatum, NMDA 20 nmol, 48 hours or 60 hours) | survival after the NMDA injection (Hq mice [8]; lentivirus-injected Hq mice, WT-AIF-Flag with one exception) | CA1 lesion volume (Hq mice [9]) | change of interaction with PAR following NMDA treatment (PAR [10]; 2 hours after 500 μM NMDA for 5 minutes) | co-immunoprecipitation with PAR (PAR [10]; postnuclear fractions, non-NMDA- and NMDA-treated cultures) | effect on susceptibility to NMDA excitotoxicity (Hq cortical neurons)
1 | His-Pbm-AIF: His tagged Pbm-AIF (protein, UniProt Q9Z0X1 1-612, looked up, variant R588A K589A K592A, full-length His tag) MFRCGGLAGAFKQKLVPLVRTVYVQRPKQRNRLPGNLFQQWRVPLELQMARQMASSGSSGGKMDNSVLVLIVGLSTIGAGAYAYKTIKEDQKRYNERVMGLGLSPEEKQRRAIASATEGGSVPQIRAPSHVPFLLIGGGTAAFAAARSIRARDPGARVLIVSEDPELPYMRPPLSKELWFSDDPNVTKTLQFRQWNGKERSIYFQPPSFYVSAQDLPNIENGGVAVLTGKKVVHLDVRGNMVKLNDGSQITFEKCLIATGGTPRSLSAIDRAGAEVKSRTTLFRKIGDFRALEKISREVKSITVIGGGFLGSELACALGRKSQASGIEVIQLFPEKGNMGKILPQYLSNWTMEKVKREGVKVMPNAIVQSVGVSGGRLLIKLKDGRKVETDHIVTAVGLEPNVELAKTGGLEIDSDFGGFRVNAELQARSNIWVAGDAACFYDIKLGRRRVEHHDHAVVSGRLAGENMTGAAKPYWHQSMFWSDLGPDVGYEAIGLVDSSLPTVGVFAKATAQDNPKSATEQSGTGIRSESETESEASEITIPPSAPAVPQVPVEGEDYGKGVIFYLRDKVVVGIVLWNVFNRMPIAAAIIADGEQHEDLNEVAKLFNIHED | no significant difference | comparable | much less (and virtually linear) binding | no significant change in NADH oxidase activity | – | – | – | – | – | – | – | – | – | – | – | – | – | –
2 | WT-AIF-Flag: C-terminal Flag-tagged mouse wild type AIF, delivered by lentivirus, AAV2 or transfection (protein, UniProt Q9Z0X1 1-612, looked up, full-length C-terminal Flag tag, C-terminal Flag-tagged mouse wild type AIF, delivered by lentivirus, AAV2 or transfection) MFRCGGLAGAFKQKLVPLVRTVYVQRPKQRNRLPGNLFQQWRVPLELQMARQMASSGSSGGKMDNSVLVLIVGLSTIGAGAYAYKTIKEDQKRYNERVMGLGLSPEEKQRRAIASATEGGSVPQIRAPSHVPFLLIGGGTAAFAAARSIRARDPGARVLIVSEDPELPYMRPPLSKELWFSDDPNVTKTLQFRQWNGKERSIYFQPPSFYVSAQDLPNIENGGVAVLTGKKVVHLDVRGNMVKLNDGSQITFEKCLIATGGTPRSLSAIDRAGAEVKSRTTLFRKIGDFRALEKISREVKSITVIGGGFLGSELACALGRKSQASGIEVIQLFPEKGNMGKILPQYLSNWTMEKVKREGVKVMPNAIVQSVGVSGGRLLIKLKDGRKVETDHIVTAVGLEPNVELAKTGGLEIDSDFGGFRVNAELQARSNIWVAGDAACFYDIKLGRRRVEHHDHAVVSGRLAGENMTGAAKPYWHQSMFWSDLGPDVGYEAIGLVDSSLPTVGVFAKATAQDNPKSATEQSGTGIRSESETESEASEITIPPSAPAVPQVPVEGEDYGKGVIFYLRDKVVVGIVLWNVFNRMPIARKIIKDGEQHEDLNEVAKLFNIHED | – | – | – | – | translocate from the mitochondria to the nucleus | translocated to the nucleus; also recorded: observed in the nucleus | significantly increased | co-immunoprecipitated with PAR in resting cells | translocated to the nucleus 4 hours following MNNG treatment | induced the release | induced the release | restored their susceptibility to MNNG toxicity | restored sensitivity to NMDA excitotoxicity | < 168 h | large lesion volume | significantly increased | pulled down | restored Hq cortical neuron susceptibility to NMDA excitotoxicity
